Reference: patent US20250011363A1, “OPTIMIZED SHORTENED PEPTIDE THAT BINDS TO ACETYLCHOLINE RECEPTOR, AND USE THEREOF” (SKINMED CO., LTD., priority 2021, published 2025)

What was measured:
acetylcholine receptor [1] = assay: SPR, peptide at 10 uM
acetylcholine receptor [2] = assay: SPR, AchR immobilized on chip, peptide 10 uM

Row | Binder | Binding affinity (acetylcholine receptor [1]) [RU] | Binding affinity (RU) (acetylcholine receptor [2])
1 | KLISK [5mer-498] |  | 53
2 | KVVSR [5mer-195] |  | 82
3 | KEDMRK [6mer-2-1109] | 26 | 
4 | RGFCK [5mer-494] |  | 54
5 | RYTKKR [6mer-2-1104] | 38 | 
6 | RTAPKK [6mer-2-1100] | 24 | 
7 | RKKFRK [6mer-2-1114] | 34 | 
8 | KWQSK [5mer-194] |  | 84
9 | RTKMRR [6mer-2-1101] | 38 | 
10 | KVVTK [5mer-495] |  | 52
11 | KMEVKK [6mer-2-1116] | 31 | 
12 | REDEKK [6mer-2-1111] | 23 | 
13 | KGIQK [5mer-496] |  | 81
14 | RDMMKK [6mer-2-1120] | 28 | 
15 | RAHERK [6mer-2-1107] | 29 | 
16 | KRRCR [5mer-497] |  | 76
17 | RNNAKK [6mer-2-1105] | 28 | 

Row | Binder | Binding affinity (acetylcholine receptor [1]) [RU] | Binding affinity (RU) (acetylcholine receptor [2])
18 | REDWRR [6mer-2-1099] | 21 | 
19 | KPSKRR [6mer-2-1121] | 21 | 
20 | KYSPRK [6mer-2-1115] | 39 | 
21 | RMHVKR [6mer-2-1117] | 21 | 
22 | RSRQK [5mer-197] |  | 68
23 | RSYYR [5mer-196] |  | 69
24 | KPNFRK [6mer-2-1113] | 43 | 
25 | RDAWRK [6mer-2-1103] | 42 | 
26 | KHKGKR [6mer-2-1102] | 32 | 
27 | KDKVKR [6mer-2-1106] | 28 | 
28 | KKKVRR [6mer-2-1108] | 36 | 
29 | RASWRK [6mer-2-1112] | 26 | 
30 | RMTKKK [6mer-2-1110] | 37 | 
31 | KLISR [5mer-198] |  | 74
32 | RFDGRR [6mer-2-1118] | 42 | 
33 | KCTVRK [6mer-2-1119] | 39 | 

Second part, the binder after the results:

Row | Binding affinity (acetylcholine receptor [1]) [RU] | Binding affinity (RU) (acetylcholine receptor [2]) | Binder
34 | 36 |  | RITARR [6mer-2-1123]
35 | 23 |  | RIKNRR [6mer-2-1145]
36 | 23 |  | RHEVRR [6mer-2-1126]
37 | 39 |  | RKTWRK [6mer-2-1124]
38 | 22 |  | RCNFKK [6mer-2-1122]
39 | 22 |  | KMKMKK [6mer-2-1133]
40 | 30 |  | KKAMKR [6mer-2-1142]
41 | 26 |  | RTNAKR [6mer-2-1131]
42 | 22 |  | RTDFKR [6mer-2-1137]
43 | 42 |  | RITGKR [6mer-2-1129]
44 | 32 |  | KCTGKR [6mer-2-1141]
45 | 36 |  | KNCMRK [6mer-2-1128]
46 | 42 |  | KAHFKK [6mer-2-1138]
47 | 42 |  | KAAEKK [6mer-2-1127]
48 | 36 |  | KMKKKR [6mer-2-1136]
49 | 29 |  | RHSFRK [6mer-2-1130]
50 | 42 |  | KACIKK [6mer-2-1143]
51 | 29 |  | KMNKKR [6mer-2-1140]
52 | 32 |  | RPWERR [6mer-2-1132]
53 | 29 |  | RANWKR [6mer-2-1135]
54 | 30 |  | KYENRK [6mer-2-1134]
55 | 39 |  | KAKAKK [6mer-2-1139]
56 | 39 |  | RFEDRK [6mer-2-1144]
57 | 30 |  | RDAFKK [6mer-2-1125]
